Laboratory results: paper PMC12990809

How the values were obtained:
Test in all cases: pulldown
Details in all cases: 20 nM protein, 1.5 uM RNA pool; 20 mM HEPES pH 7.8, 70 mM KCl, 10 mM NaCl, 10% glycerol, 2 mM DTT, 0.1 ug/uL BSA; 30 min, 4 C
[1] = biological target: T1, nrd1 (Schizosaccharomyces pombe) (UniProt Q09702)
T1 sequence: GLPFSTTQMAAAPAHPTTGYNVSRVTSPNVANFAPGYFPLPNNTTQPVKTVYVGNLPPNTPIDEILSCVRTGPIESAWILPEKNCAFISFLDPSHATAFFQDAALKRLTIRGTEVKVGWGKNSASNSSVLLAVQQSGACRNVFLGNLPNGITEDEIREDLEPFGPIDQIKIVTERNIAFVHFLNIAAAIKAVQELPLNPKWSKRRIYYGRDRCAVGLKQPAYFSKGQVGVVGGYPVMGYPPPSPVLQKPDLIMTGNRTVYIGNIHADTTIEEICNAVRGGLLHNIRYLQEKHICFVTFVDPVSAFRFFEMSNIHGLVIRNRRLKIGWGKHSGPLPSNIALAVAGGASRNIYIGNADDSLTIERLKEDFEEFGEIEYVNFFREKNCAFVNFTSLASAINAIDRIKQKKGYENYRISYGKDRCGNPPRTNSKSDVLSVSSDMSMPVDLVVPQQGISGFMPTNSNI

[2] = biological target: T2, NEMVEDRAFT_v1g214798 (Nematostella vectensis) (UniProt A7SN30)
T2 sequence: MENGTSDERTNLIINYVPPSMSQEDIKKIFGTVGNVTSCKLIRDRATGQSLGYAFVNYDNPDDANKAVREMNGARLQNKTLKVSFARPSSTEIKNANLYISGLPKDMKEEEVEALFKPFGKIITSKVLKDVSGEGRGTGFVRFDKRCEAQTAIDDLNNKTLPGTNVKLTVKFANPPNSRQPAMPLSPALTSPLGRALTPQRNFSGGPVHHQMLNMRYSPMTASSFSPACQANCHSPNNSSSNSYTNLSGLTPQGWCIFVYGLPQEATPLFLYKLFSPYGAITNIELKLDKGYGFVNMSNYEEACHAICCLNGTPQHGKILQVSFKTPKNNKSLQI

[3] = biological target: T3, cwf2 (Schizosaccharomyces pombe) (UniProt P87126)
T3 sequence: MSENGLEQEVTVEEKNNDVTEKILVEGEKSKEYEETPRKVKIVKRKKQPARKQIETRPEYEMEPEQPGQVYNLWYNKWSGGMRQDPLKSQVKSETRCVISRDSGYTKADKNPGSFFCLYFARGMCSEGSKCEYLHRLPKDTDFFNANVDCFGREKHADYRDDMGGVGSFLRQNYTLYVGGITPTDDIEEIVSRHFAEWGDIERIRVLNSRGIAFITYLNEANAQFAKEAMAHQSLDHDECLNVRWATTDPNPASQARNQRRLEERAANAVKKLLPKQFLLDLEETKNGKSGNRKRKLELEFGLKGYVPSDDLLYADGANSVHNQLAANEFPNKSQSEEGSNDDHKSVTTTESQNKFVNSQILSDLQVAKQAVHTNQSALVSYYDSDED

u2af2b (Danio rerio) = u2af2b (Danio rerio) (UniProt A0ACM8Q3Q6)
u2af2b (Danio rerio), sequence (A0ACM8Q3Q6 entry or part of it): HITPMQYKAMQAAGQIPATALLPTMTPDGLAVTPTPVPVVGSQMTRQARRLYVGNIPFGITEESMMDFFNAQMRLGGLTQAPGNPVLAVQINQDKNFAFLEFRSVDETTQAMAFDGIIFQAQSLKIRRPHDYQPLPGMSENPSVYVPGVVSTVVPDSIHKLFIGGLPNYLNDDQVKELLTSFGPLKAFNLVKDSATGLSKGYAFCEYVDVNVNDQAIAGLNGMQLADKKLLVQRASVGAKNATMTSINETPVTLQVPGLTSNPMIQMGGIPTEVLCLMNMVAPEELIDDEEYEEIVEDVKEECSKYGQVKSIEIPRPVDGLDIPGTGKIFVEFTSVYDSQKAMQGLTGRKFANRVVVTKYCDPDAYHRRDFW

[4] = biological target: T4, CBG03563 (Caenorhabditis briggsae) (UniProt A8WVC5)
T4 sequence: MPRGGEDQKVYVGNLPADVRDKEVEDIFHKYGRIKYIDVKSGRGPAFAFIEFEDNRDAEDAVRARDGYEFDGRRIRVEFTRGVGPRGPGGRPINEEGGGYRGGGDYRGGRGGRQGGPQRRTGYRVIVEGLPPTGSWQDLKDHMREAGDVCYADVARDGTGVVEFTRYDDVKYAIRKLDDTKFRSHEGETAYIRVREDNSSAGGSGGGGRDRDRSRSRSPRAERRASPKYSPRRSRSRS

[5] = biological target: T5, PK25912.1 V2I;D3L;F4R (Cannabis sativa) (UniProt A0A803Q7P0)
T5 sequence: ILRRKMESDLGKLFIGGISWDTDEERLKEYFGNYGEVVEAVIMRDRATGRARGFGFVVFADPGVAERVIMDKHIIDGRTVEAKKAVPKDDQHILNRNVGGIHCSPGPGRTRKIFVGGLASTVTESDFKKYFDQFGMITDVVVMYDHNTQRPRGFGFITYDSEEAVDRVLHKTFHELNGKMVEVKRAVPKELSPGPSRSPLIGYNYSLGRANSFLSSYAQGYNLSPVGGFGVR

[6] = biological target: T6, Y57G11C.36 (Caenorhabditis elegans) (UniProt Q8I4C4)
T6 sequence: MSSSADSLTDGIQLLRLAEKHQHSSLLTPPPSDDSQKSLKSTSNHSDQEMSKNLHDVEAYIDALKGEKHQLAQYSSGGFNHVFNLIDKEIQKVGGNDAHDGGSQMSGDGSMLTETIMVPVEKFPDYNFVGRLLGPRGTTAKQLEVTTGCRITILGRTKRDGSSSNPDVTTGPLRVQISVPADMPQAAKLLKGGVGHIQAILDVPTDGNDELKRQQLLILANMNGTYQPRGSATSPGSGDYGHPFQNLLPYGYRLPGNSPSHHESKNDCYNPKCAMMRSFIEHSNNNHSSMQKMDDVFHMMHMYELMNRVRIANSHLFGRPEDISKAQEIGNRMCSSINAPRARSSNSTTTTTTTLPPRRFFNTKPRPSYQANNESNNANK

[7] = biological target: T7, CPEB1 E201G;P348T;C438Y (Homo sapiens) (UniProt Q9BZB8)
T7 sequence: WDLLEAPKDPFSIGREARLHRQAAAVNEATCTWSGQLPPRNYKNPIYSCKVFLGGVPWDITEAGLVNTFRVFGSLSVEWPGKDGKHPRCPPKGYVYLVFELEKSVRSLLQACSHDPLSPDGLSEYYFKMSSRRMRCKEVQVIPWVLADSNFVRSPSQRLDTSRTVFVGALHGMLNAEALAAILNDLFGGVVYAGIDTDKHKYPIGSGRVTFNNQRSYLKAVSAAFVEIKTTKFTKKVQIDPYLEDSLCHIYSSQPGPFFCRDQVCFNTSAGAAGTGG

[8] = tested on: T8, PK27602.1 (Cannabis sativa)
T8 sequence: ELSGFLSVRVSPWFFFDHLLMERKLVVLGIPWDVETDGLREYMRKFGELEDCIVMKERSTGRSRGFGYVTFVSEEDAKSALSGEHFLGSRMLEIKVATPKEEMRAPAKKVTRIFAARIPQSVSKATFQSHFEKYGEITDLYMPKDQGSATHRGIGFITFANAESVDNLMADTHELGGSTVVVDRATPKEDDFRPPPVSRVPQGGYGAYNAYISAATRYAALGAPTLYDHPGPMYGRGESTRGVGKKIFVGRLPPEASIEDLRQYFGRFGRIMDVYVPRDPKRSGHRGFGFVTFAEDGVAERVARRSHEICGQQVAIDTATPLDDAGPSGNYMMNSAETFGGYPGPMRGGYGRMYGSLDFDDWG

Substance: UUUUUUC [RNAcompete motif RNCMPT00414]
- binding signal (z-score (mean of top ten 7-mers)) [1]: 11.9

Substance: UUNUUUU [RNAcompete motif RNCMPT00421]
- binding signal (z-score (mean of top ten 7-mers)) [2]: 11.9

Substance: AANUUG [RNAcompete motif RNCMPT00432]
- binding signal (z-score (mean of top ten 7-mers)) [3]: 17.4

Substance: UUUUUC [RNAcompete motif RNCMPT00418]
- binding signal (z-score (mean of top ten 7-mers)) (u2af2b (Danio rerio)): 14.4

Substance: GGACGANG [RNAcompete motif RNCMPT00433]
- binding signal (z-score (mean of top ten 7-mers)) [4]: 7.68

Substance: UAGGAA [RNAcompete motif RNCMPT00430]
- binding signal (z-score (mean of top ten 7-mers)) [5]: 8.55

Substance: CUACUAG [RNAcompete motif RNCMPT00423]
- binding signal (z-score (mean of top ten 7-mers)) [6]: 15.3

Substance: UUUUUUA [RNAcompete motif RNCMPT00434]
- binding signal (z-score (mean of top ten 7-mers)) [7]: 13.2

Substance: GAGUGA [RNAcompete motif RNCMPT00431]
- binding signal (z-score (mean of top ten 7-mers)) [8]: 12.8
